Measurements as given in publication PMC9723947, “Ornate, large, extremophilic (OLE) RNA forms a kink turn necessary for OapC protein recognition and RNA function”.
Numbering of substitutions follows the chain as printed. In names and notes the source's numbering stands.

Tests used:
[1] = biological target: T1, YbxF/OapC WT (Bacillus halodurans C-125) (UniProt Q9Z9M0); assay: filter binding; settings: Filter binding: 20 mM Tris-HCl pH 7.5, 150 mM NaCl, 10 mM MgCl2, 1 mM TCEP, ~20 C, 15 min, ~10 pM RNA
T1 sequence: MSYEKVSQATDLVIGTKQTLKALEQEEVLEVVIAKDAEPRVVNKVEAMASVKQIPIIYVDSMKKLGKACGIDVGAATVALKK

[2] = biological target: T1, YbxF/OapC WT (Bacillus halodurans C-125); assay: footprinting (in-line probing); settings: Filter binding: 20 mM Tris-HCl pH 7.5, 150 mM NaCl, 10 mM MgCl2, 1 mM TCEP, ~20 C, 15 min, ~10 pM RNA
YbxF/OapC WT [3] = biological target: T2, YbxF/OapC WT (Bacillus halodurans C-125, UniProt Q9Z9M0 1-82); assay: filter binding; Filter binding: 20 mM Tris-HCl pH 7.5, 150 mM NaCl, 10 mM MgCl2, 1 mM TCEP, ~20 C, 15 min, ~10 pM RNA; settings: protein: recombinant, tags: N-terminal His6 + PreScission (3C) site, label: 5' 32P
T2 sequence: T1 sequence

YbxF/OapC WT [4] = biological target: T2, YbxF/OapC WT; assay: filter binding; no binding at 1 uM or higher protein; Filter binding: 20 mM Tris-HCl pH 7.5, 150 mM NaCl, 10 mM MgCl2, 1 mM TCEP, ~20 C, 15 min, ~10 pM RNA; settings: protein: recombinant; tags: N-terminal His6 + PreScission (3C) site; label: 5' 32P; hairpin

GGCACAUCGAUGAAGCUCCUUGUGAUGGCUUGAGGCGCCCAGCCUUGGGUCAUUGCUGGGAGAAAAGGUAGUAGGGCGAUCCACAAAGGCAUGUGGGCGAUGACCCUCCUACUGUGGAGGCCUUUUUCUCUGCUGCUUAUGUAUGGACAUAGG [OLE78-230]
binding [1]: binds more weakly

GGCACAUCGAUGAAGCUCCUUGUGAUGGCUUGAGGCGCCCAGCCUUGGGUCAUUGCUGGGAGAAAAGGUAGUAGGGCGAUCCACAAAGGCAUGUGGGCGAUGACCCUCCUACUGUGGAGGCCUUUUUCUCUGCUGCUUAUGUAUGGACAUAGGGCAAGAGCAAAGGGUAUGAACCUGCGAAGGCAAGCUAGGGAGCUUGUCAGCAGCGUAGCC [OLE78-290]
binding [1]: binds
binding [2]: binds

GGCCUUGAGUGGAGUAGAGGGGAUUAUGGGUUUUGAAGCAAUCCGCUGUCGGCCAACAGCCAUUGCCUCUCUAGUACCAUAUGAAAUCUGCUCUGCAAAAGAG [OLE293-394]
binding [1]: no binding

GGCAUUUAAAGAGGAUUACAGUGUGGACUAAGUGGUAAUCCAGUCUGGCGUUUGGUGACAGCGCCAAGUUCAACAUAAAGGGAAACCGCCAGCGCGGCGACGCACUGGUGUUGAAUUGGGAAAUCCUACUGGACCUAAGCCACAGAGUUUACUCUUUAAAUG [OLE449-608]
binding [1]: no binding

B1: OLE83-147 (structured_RNA)
RNA: GGAUCGAUGAAGCUCCUUGUGAUGGCUUGAGGCGCCCAGCCUUGGGUCAUUGCUGGGAGAAAAGGUA
binding result (YbxF/OapC WT [3]): binds

B2: OLE k-turn WT (structured_RNA)
RNA: GGAUCGAUGAAGCUCCCGAAAGGGAGAAAAGGUA
binding result (YbxF/OapC WT [3]; hairpin with k-turn): binds

B3: OLE k-turn C85A (structured_RNA)
RNA: B2 RNA with C5A
binding result (YbxF/OapC WT [4]): no binding

B4: OLE k-turn U84C (structured_RNA)
RNA: B2 RNA with U4C
binding result (YbxF/OapC WT [3]; hairpin with k-turn): binds
